# What was measured:
# [1] = molecular target: T1, Recombinant Cx43CT (carboxyl terminal domain of connexin43, sequence 255-382 of rCx43 preceded by GPLG) (rat, UniProt P08050); test: SPR, Cx43CT immobilised, peptide at 1 mM, response normalised on Mw
# Description: (§1) Biophys. […] Commun. 8(4-6):225-229 (2001); Lang et al., “Surface Plasmon Resonance as a Method to Study the Kinetics and Amplitude of Protein-protein Binding,” in PRACTICAL METHODS IN CARDIOVASCULAR […] 936-947 (Stefan Dhein, Friedrich Wilhelm Mohr & Mario Delmar eds., 2005), which are hereby incorporated by reference in their entirety). Recombinant Cx43CT was covalently bound to a carboxylmethyl dextran matrix (Salamon et al., “Surface Plasmon Resonance Spectroscopy as a Tool for Investigating the Biochemical and Biophysical Properties of Membrane Protein Systems. II: Applications to Biological Systems,” Biochim. Biophys. Acta 1331(2):131-152 (1997), which is hereby incorporated by reference in its entirety). Specific peptides were presented and, when feasible, dissociation constants (KD) were calculated from the time course of binding and unbinding of the ligand, using a 1:1 (Langmuir) association and dissociation kinetic model (Biacore software package). In both phases (association and dissociation), the first 5-8 seconds of recording were not included in the fit, to avoid artifacts resulting from peptide distribution within the flow cells (Lang et al., “Surface Plasmon Resonance as a Method to Study the Kinetics and Amplitude of Protein-protein Binding,” in PRACTICAL METHODS IN CARDIOVASCULAR […] 936-947 (Stefan Dhein, Friedrich Wilhelm Mohr & Mario Delmar eds., 2005), which is hereby incorporated by reference in its entirety).
# (§2) The peptides shown in table 2 and 3 were tested for binding to the carboxyl terminal domain (CT) of Cx43 using Surface Plasmon Resonance (“SPR”). SPR is a method that was used to identify the original RXPE sequence (Shibayama et al., “Identification of a Novel Peptide that Interferes with the Chemical Regulation of Connexin-43,” Circ. Res. 98:1365-72 (2006)). The amplitude of the response is also a function of the mass of the ligate, and the normalized data according to the individual peptide Mw's are shown in table 3.
# [2] = molecular target: T1, Recombinant Cx43CT (carboxyl terminal …); test: SPR, Cx43CT immobilised, peptide at 500 uM, response normalised on Mw
# Description: as §1, §2
# [3] = molecular target: T1, Recombinant Cx43CT (carboxyl terminal …); test: SPR, Cx43CT immobilised, peptide at 1 mM
# Method: (§3) Recombinant Cx43CT was covalently bound to a carboxylmethyl dextran matrix (Salamon et al., “Surface Plasmon Resonance Spectroscopy as a Tool for Investigating the Biochemical and Biophysical Properties of Membrane Protein Systems. II: Applications to Biological Systems,” Biochim. Biophys. Acta 1331(2):131-152 (1997), which is hereby incorporated by reference in its entirety). Specific peptides were presented and, when feasible, dissociation constants (KD) were calculated from the time course of binding and unbinding of the ligand, using a 1:1 (Langmuir) association and dissociation kinetic model (Biacore software package). In both phases (association and dissociation), the first 5-8 seconds of recording were not included in the fit, to avoid artifacts resulting from peptide distribution within the flow cells (Lang et al., “Surface Plasmon Resonance as a Method to Study the Kinetics and Amplitude of Protein-protein Binding,” in PRACTICAL METHODS IN CARDIOVASCULAR […] 936-947 (Stefan Dhein, Friedrich Wilhelm Mohr & Mario Delmar eds., 2005), which is hereby incorporated by reference in its entirety).
# (§4) The peptides shown in table 2 and 3 were tested for binding to the carboxyl terminal domain (CT) of Cx43 using Surface Plasmon Resonance (“SPR”). SPR is a method that was used to identify the original RXPE sequence (Shibayama et al., “Identification of a Novel Peptide that Interferes with the Chemical Regulation of Connexin-43,” Circ. Res. 98:1365-72 (2006)).
# [4] = molecular target: T1, Recombinant Cx43CT (carboxyl terminal …); test: SPR, Cx43CT immobilised, peptide at 25 uM, response normalised on Mw
# Description: as §1, §2
# [5] = molecular target: T1, Recombinant Cx43CT (carboxyl terminal …); test: SPR, Cx43CT immobilised, peptide at 500 uM
# Method: as §3, §4
# [6] = molecular target: T1, Recombinant Cx43CT (carboxyl terminal …); test: SPR, Cx43CT immobilised, peptide at 100 uM
# Method: as §3, §4
# [7] = molecular target: T1, Recombinant Cx43CT (carboxyl terminal …); test: SPR, Cx43CT immobilised, peptide at 25 uM
# Method: as §3, §4
# [8] = molecular target: T1, Recombinant Cx43CT (carboxyl terminal …); test: SPR, Cx43CT immobilised, peptide at 250 uM, response normalised on Mw
# Description: as §1, §2
# [9] = molecular target: T1, Recombinant Cx43CT (carboxyl terminal …); test: SPR, Cx43CT immobilised, peptide at 250 uM
# Method: as §3, §4
# [10] = molecular target: T1, Recombinant Cx43CT (carboxyl terminal …); test: SPR, Cx43CT immobilised, peptide at 100 uM, response normalised on Mw
# Description: as §1, §2
# T1 sequence (P08050 other isoform, or with tags, fused parts or gaps limits assumed): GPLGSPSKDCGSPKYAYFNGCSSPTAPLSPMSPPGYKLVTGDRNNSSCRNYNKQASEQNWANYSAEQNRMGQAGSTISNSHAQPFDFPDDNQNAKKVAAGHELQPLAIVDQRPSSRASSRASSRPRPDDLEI
Binder,SPR normalised on Mw at 1 mM [1],SPR normalised on Mw at 500 uM [2],SPR respons at 1 mM [3] [arbitrary units],SPR normalised on Mw at 25 uM [4],SPR respons at 500 uM [5] [arbitrary units],SPR respons at 100 uM [6] [arbitrary units],SPR respons at 25 uM [7] [arbitrary units],SPR normalised on Mw at 250 uM [8],SPR respons at 250 uM [9] [arbitrary units],SPR normalised on Mw at 100 uM [10]
Ac-RRNYRRNY-NH2 [Compound 2497],45.7 (SPRrespons*100)/Mw,26.5 (SPRrespons*100)/Mw,565,2.4 (SPRrespons*100)/Mw,328,84.2,30.2,16.3 (SPRrespons*100)/Mw,202,6.8 (SPRrespons*100)/Mw
Ac-RRNYVPRRNY-NH2 [Compound 2512],27.5 (SPRrespons*100)/Mw,15.9 (SPRrespons*100)/Mw,395,1 (SPRrespons*100)/Mw,227,50.7,14.8,8.2 (SPRrespons*100)/Mw,117,3.5 (SPRrespons*100)/Mw
Ac-RRNYGGGRRNY-NH2 [Compound 2509],34 (SPRrespons*100)/Mw,19.9 (SPRrespons*100)/Mw,479,1.5 (SPRrespons*100)/Mw,281,62.5,21.5,10.5 (SPRrespons*100)/Mw,148,4.4 (SPRrespons*100)/Mw
Ac-RRNYGGSAVPFYSHRRNY-NH2 [Compound 2510],53 (SPRrespons*100)/Mw,28.7 (SPRrespons*100)/Mw,1190,1.8 (SPRrespons*100)/Mw,643,176,40.3,14.8 (SPRrespons*100)/Mw,332,7.9 (SPRrespons*100)/Mw
Ac-YNRRGGGSAVPFYSHSYNRR-NH2 [Compound 2496],58.8 (SPRrespons*100)/Mw,31 (SPRrespons*100)/Mw,1400,2.8 (SPRrespons*100)/Mw,739,156,67.7,15 (SPRrespons*100)/Mw,358,6.5 (SPRrespons*100)/Mw
Ac-RRNY-NH2 [Compound 2498],14 (SPRrespons*100)/Mw,7.9 (SPRrespons*100)/Mw,91,–,50.9,–,–,–,–,–
Ac-RRNYSHSRRNY-NH2 [Compound 2507],45.4 (SPRrespons*100)/Mw,28.3 (SPRrespons*100)/Mw,703,2.7 (SPRrespons*100)/Mw,438,114,42.3,16.4 (SPRrespons*100)/Mw,254,7.3 (SPRrespons*100)/Mw
Ac-RRNYGGGSAVPFYRRNY-NH2 [Compound 2508],49.4 (SPRrespons*100)/Mw,26.4 (SPRrespons*100)/Mw,1020,1.5 (SPRrespons*100)/Mw,547,122,31.1,13.7 (SPRrespons*100)/Mw,285,5.9 (SPRrespons*100)/Mw
Ac-RRNYSAVPFYSHSRRNY-NH2 [Compound 2506],53 (SPRrespons*100)/Mw,25.4 (SPRrespons*100)/Mw,1170,2.3 (SPRrespons*100)/Mw,562,117,51.7,14.8 (SPRrespons*100)/Mw,327,5.3 (SPRrespons*100)/Mw
Ac-YNRR-NH2 [Compound 2499],10.7 (SPRrespons*100)/Mw,–,69.4,–,–,–,–,–,–,–
Ac-RRNYAVPFRRNY-NH2 [Compound 2511],41.9 (SPRrespons*100)/Mw,23.6 (SPRrespons*100)/Mw,692,1 (SPRrespons*100)/Mw,390,90.5,16.2,13 (SPRrespons*100)/Mw,214,5.5 (SPRrespons*100)/Mw
